Common to all, as to experiment: SPR, antibody captured, C2 as analyte;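 note: biacore SPR at 37 °C, anti-C2 mAbs captured via goat anti-human IgG on CM5 chips, double-referenced sensorgrams fit to a 1:1 kinetic or steady-state model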
For orientation: SPR reads the build-up and loss of mass on a sensor chip optically.

For one assay, the target named is T1, human C2 T442A (human, UniProt P06681 21-752).
T1 sequence: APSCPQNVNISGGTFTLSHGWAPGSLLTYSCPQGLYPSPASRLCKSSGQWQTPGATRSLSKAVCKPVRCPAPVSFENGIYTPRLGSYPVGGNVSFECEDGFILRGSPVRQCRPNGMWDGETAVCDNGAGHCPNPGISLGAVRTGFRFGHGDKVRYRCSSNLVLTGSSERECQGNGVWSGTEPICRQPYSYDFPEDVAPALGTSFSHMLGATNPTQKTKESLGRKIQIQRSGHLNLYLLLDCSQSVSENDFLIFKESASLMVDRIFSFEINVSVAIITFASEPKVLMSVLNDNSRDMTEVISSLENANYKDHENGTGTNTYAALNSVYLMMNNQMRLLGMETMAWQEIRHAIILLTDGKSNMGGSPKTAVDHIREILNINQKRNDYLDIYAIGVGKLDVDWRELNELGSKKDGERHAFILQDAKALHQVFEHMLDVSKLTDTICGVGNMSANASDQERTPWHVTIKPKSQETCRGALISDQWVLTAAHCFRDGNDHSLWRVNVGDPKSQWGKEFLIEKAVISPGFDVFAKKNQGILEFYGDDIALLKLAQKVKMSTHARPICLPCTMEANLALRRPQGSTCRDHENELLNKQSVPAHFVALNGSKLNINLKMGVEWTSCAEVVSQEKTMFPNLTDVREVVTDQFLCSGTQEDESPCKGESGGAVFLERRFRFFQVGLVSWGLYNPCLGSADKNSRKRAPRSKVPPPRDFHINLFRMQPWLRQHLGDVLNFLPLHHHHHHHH

For the next assay, the target named is T2, human C2 N424A (human, UniProt P06681 21-752).
T2 sequence: T1 sequence with N404A, A422T

The next assay concerns the target T3, human C2 G432A (human, UniProt P06681 21-752).
T3 sequence: T1 sequence with G412A, A422T

Another assay concerns the target T4, human C2 N268A (human, UniProt P06681 21-752).
T4 sequence: T1 sequence with N248A, A422T

Residue numbers refer to the chain shown, from its start.

Procedure for human C2 G432A: (§1) Surface plasmon resonance (SPR, Biacore) was used for all binding affinity analyses. In brief, goat anti-human IgG was directly immobilised onto the carboxymethyl dextran surface of CM5 sensorchips to approximately 12,000 RU using standard NHS/EDC chemistry at pH 5. The immobilised antibody surface was pre-conditioned with ten injections of polyclonal human IgG (Privigen 60 s) prepared at 1 μg/mL. Ligands (anti-C2 mAbs) were captured at the beginning of each cycle as described below. An adjacent spot or flow cell in which only Polyclonal IgG was capture was used as a reference surface. The goat anti-human IgG Fc antibody surface was regenerate in 100 mM H3PO4, injected for 45 seconds at the end of each cycle. Experiments were performed at 37° C. and the flow rate of each experiment was kept constant at 30 μL/min.
(§2) Sensogram data was double-referenced against a reference anti-IgG surface (i.e. minus anti-C2 mAb) and blank buffer injections obtained within each experiment. The binding data was fit to 1:1 (kinetic or steady-state) model using local Rmax and null refraction index (RI=0) when appropriate. Buffers and solutions were filtered (0.22 μm) prior to use.
Procedure for human C2 N268A: as §1, §2
Procedure for human C2 N424A: as §1, §2
Procedure for human C2 T442A: as §1, §2

B1: RF16-226 (antibody, human IgG4 S228P, lambda)
heavy: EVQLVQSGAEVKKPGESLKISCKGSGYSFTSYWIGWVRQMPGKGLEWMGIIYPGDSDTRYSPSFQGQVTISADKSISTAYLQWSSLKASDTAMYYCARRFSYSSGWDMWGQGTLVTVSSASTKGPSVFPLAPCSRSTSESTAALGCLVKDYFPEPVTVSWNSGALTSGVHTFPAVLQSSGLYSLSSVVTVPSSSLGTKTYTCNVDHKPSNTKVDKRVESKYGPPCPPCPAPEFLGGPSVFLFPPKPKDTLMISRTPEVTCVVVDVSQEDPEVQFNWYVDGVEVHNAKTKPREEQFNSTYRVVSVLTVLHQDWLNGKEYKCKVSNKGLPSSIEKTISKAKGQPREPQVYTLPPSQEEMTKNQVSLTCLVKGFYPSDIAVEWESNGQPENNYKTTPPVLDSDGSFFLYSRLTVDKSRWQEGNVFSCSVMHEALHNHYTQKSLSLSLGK
light: SYELTQPPSVSVSPGQTARITCSGDALTSKYVAWYQQKSGLAPLLVIYEDTRRPSGIPAKFSGSSSGSVATLTISGAHGDDEADYYCYSTDASGHQRVFGGGTKLTVLSQPKAAPSVTLFPPSSEELQANKATLVCLISDFYPGAVTVAWKADGSPVKAGVETTKPSKQSNNKYAASSYLSLTPEQWKSHRSYSCQVTHEGSTVEKTVAPTECS
notes: pH-dependent anti-C2 antibody from a phage display library; also called WT
The Kd is the concentration at which binding is half-saturated. Higher therefore signals a looser complex. Turning to B1, the equilibrium dissociation constant (Kd) with human C2 T442A amounted to 23.7 nM; with human C2 N424A, 3.2 nM; with human C2 G432A it was 6.6 nM; with human C2 N268A, 11.8 nM.

Values taken from patent US20220332804A1 (CSL INNOVATION, published 2022).
